Test results taken from CN107022030A (GUANGDONG GUYING BIOTECHNOLOGY INDUSTRIAL RES INSTITUTE CO …, dated 2017).

B1: 单克隆抗体Ab4 (antibody, part only; not given: light chain variable region, constant regions, V domains shown, part only)
VH: VKLQQSGPELVKPGASVTLSCKASGYTFTSYYIHWVKQRPGQELEWIGWIYPGNVNTKYNEKFKGKATLTADKSSSTAYMQLSSLTSEDSAVYFCARCSGRLYYAMDYWGQGTTVTVSS
B2: 单克隆抗体Ab3 (antibody, V domains shown)
VH: VKLQESGAELVKPGASVKLSCTASGFNIKDTYMHWVKQRPEQGLEWIGGIDPANGKTKFDPKFQGKATITADTSSNTAYLHLSRLTSDDTAVYYCVRGQVGGRGWFAYWGQGTTVTVSS
VL: DIQLTQSPSSLSASLGERVSLTCRASQEISGYLSWLQRKPDGTIKRLIYAASTLDSGVPKRFSGSRSGSDYSLTISSLESEDFADYYCLQYASYPYTFGGGTKL
notes: Mouse monoclonal IgG from hybridoma ascites, Protein G purified; HRP-labelled in the immunohistochemistry; also called Ab3-HRP

How the values were obtained:
[1] = target: 人甲胎蛋白(human alpha fetoprotein，hAFP) (human) (UniProt P02771); assay: ELISA titre of ascites antibody on hAFP
[2] = target: T1, 人血清白蛋白(human serum albumin，HSA) (human, UniProt P02768 25-609); assay: indirect ELISA, HSA as cross-reaction antigen
T1 construct: Used at 40 mg/ml as the cross-reaction antigen; also called HAS
T1 sequence (P02768 25-609): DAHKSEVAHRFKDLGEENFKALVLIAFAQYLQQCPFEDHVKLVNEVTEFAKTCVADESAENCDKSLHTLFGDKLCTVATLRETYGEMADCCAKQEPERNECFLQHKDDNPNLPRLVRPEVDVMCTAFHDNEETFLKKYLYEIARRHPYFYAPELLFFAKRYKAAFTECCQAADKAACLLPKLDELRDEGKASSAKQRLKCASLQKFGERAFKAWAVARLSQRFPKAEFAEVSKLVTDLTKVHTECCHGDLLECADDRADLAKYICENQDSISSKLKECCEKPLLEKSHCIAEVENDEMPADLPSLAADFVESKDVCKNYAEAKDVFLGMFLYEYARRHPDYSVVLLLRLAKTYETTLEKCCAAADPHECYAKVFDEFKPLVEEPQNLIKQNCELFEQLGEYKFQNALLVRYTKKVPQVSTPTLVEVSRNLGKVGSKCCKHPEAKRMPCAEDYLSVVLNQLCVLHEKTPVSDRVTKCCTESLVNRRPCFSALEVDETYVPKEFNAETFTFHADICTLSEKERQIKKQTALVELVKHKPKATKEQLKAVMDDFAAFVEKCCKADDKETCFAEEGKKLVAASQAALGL

UniProt P02771, sequence (P02771 19-609): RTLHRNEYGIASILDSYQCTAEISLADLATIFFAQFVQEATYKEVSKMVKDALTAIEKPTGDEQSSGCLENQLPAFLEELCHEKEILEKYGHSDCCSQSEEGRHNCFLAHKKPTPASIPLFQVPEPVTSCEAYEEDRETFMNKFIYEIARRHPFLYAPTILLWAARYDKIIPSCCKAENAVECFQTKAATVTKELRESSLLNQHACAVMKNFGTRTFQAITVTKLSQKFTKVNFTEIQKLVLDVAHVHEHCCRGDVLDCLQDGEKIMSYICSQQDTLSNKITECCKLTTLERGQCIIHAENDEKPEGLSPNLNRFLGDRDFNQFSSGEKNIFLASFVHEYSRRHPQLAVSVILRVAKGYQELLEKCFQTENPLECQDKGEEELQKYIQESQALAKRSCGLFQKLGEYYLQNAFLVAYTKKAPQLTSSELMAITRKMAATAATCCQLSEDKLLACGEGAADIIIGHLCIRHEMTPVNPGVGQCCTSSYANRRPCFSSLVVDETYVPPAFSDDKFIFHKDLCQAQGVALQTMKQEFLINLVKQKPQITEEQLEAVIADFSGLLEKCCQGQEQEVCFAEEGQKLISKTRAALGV

Binder	腹水效价 [1]	binding result [2]
B1	< 3e+07	–
B2	–	no binding (tested: 40mg/ml)
